T1: APBA2_2, Q99767
T1 sequence (Q99767 654-744, limits assumed, looked up): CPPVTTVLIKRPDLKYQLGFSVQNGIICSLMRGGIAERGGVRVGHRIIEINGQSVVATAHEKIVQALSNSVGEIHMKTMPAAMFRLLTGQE

T2: FRMPD1, Q5SYB0
T2 sequence (Q5SYB0 52-145, limits assumed, looked up): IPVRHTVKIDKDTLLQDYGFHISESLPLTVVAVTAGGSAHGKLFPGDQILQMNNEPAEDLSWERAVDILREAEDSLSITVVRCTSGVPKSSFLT

T3: GRIP1_4, Q9Y3R0
T3 sequence (Q9Y3R0 467-571, limits assumed, looked up): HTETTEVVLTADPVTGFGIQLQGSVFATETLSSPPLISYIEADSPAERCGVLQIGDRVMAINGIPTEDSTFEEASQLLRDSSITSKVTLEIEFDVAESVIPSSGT

T4: GRIP1_7, Q9Y3R0
T4 sequence (Q9Y3R0 999-1096, limits assumed, looked up): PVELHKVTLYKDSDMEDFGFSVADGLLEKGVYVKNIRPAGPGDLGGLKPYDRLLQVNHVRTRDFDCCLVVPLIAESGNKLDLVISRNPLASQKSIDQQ

T5: LIN7A, O14910
T5 sequence (O14910 103-200, limits assumed, looked up): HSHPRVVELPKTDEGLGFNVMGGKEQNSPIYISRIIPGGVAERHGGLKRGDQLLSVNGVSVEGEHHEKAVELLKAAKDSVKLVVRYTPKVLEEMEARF

T6: LIN7B, Q9HAP6
T6 sequence (Q9HAP6 88-185, limits assumed, looked up): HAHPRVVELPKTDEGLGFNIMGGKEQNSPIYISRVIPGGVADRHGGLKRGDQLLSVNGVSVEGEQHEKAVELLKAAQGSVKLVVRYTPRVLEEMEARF

T7: PCLO, Q9Y6V0
T7 sequence (Q9Y6V0 4491-4600, limits assumed, looked up): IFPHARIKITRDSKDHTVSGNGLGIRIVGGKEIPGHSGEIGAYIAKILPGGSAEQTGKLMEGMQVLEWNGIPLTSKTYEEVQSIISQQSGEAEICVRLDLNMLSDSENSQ

T8: PDZD7_3, Q9H5P4
T8 sequence (Q9H5P4 857-944, limits assumed, looked up): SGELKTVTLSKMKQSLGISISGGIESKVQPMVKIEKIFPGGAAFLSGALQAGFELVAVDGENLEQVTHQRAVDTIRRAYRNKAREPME

T9: PTPN13_1, Q12923
T9 sequence (Q12923 1088-1188, limits assumed, looked up): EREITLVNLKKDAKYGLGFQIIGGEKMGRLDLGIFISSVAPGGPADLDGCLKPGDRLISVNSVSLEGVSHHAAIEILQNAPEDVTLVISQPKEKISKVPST

T10: TIAM2, Q8IVF5
T10 sequence (Q8IVF5 885-986, limits assumed, looked up): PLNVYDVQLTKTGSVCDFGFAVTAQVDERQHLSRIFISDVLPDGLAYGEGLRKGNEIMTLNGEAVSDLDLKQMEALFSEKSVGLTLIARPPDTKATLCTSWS


Key:
Test in all cases: holdup assay
Parameters in all cases: key: below the threshold = too weak to quantify, mostly under pKd 3.1 to 4
Settings in all cases: plain residues with an end cap or a label only (N-terminal biotin on a linker: ado-ado)
[1] = target: T1, APBA2_2, Q99767
[2] = target: DLG2_3, Q15700
[3] = target: DLG4_2, P78352
Sequence of DLG4_2, P78352 (P78352 155-259): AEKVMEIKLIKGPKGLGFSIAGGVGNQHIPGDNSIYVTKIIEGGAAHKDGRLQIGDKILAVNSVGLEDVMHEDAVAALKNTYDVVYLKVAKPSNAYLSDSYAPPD

[4] = target: T2, FRMPD1, Q5SYB0
[5] = target: FRMPD3, Q5JV73
Sequence of FRMPD3, Q5JV73 (Q5JV73 12-100): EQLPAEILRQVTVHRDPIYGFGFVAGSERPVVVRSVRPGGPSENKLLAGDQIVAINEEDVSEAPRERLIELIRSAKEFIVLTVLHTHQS

[6] = target: FRMPD4, Q14CM0
Sequence of FRMPD4, Q14CM0 (Q14CM0 67-160): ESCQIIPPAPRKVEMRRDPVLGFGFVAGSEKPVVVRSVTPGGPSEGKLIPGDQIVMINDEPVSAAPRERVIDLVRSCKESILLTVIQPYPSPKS

[7] = target: GRID2IP_1, A4D2P6
Sequence of GRID2IP_1, A4D2P6 (A4D2P6 1-87): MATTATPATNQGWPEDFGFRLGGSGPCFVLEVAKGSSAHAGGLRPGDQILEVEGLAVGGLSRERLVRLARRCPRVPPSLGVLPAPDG

[8] = target: GRID2IP_2, A4D2P6
Sequence of GRID2IP_2, A4D2P6 (A4D2P6 272-370): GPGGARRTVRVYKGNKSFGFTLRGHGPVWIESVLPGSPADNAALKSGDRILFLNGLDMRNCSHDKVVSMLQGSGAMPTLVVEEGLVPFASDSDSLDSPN

[9] = target: T3, GRIP1_4, Q9Y3R0
[10] = target: T4, GRIP1_7, Q9Y3R0
[11] = target: IL16_1, Q14005
Sequence of IL16_1, Q14005 (Q14005 210-306): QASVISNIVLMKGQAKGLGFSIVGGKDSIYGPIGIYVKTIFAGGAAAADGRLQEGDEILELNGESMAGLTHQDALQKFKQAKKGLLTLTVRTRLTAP

[12] = target: Inadl_5, Q8NI35
Sequence of Inadl_5, Q8NI35 (Q8NI35 673-780): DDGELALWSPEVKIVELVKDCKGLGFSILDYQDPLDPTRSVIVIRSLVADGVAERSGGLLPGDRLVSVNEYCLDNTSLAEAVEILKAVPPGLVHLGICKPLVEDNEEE

[13] = target: T5, LIN7A, O14910
[14] = target: T6, LIN7B, Q9HAP6
[15] = target: LNX1_1, Q8TBB1
Sequence of LNX1_1, Q8TBB1 (Q8TBB1 261-371): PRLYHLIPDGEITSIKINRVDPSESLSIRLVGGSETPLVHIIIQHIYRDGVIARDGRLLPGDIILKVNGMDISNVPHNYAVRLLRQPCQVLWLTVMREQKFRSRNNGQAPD

[16] = target: LNX1_3, Q8TBB1
Sequence of LNX1_3, Q8TBB1 (Q8TBB1 500-596): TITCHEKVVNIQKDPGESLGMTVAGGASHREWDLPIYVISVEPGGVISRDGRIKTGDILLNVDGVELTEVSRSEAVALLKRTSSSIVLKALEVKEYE

[17] = target: MAGI2_3, Q86UL8
Sequence of MAGI2_3, Q86UL8 (Q86UL8 600-682): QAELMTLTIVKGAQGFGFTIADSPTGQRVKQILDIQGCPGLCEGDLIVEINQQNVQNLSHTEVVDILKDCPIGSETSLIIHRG

[18] = target: MAGI2_4, Q86UL8
Sequence of MAGI2_4, Q86UL8 (Q86UL8 772-865): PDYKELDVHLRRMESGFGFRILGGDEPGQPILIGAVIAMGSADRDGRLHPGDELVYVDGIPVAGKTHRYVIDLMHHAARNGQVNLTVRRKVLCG

[19] = target: MAGI2_6, Q86UL8
Sequence of MAGI2_6, Q86UL8 (Q86UL8 1141-1229): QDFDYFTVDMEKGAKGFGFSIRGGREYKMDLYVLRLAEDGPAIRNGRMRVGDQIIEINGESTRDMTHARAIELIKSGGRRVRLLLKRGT

[20] = target: MAST1, Q9Y2H9
Sequence of MAST1, Q9Y2H9 (Q9Y2H9 962-1065): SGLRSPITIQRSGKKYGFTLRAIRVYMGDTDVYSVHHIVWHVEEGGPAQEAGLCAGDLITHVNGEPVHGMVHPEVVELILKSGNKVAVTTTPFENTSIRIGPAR

[21] = target: T7, PCLO, Q9Y6V0
[22] = target: T8, PDZD7_3, Q9H5P4
[23] = target: PDZRN4_1, Q6ZMN7
Sequence of PDZRN4_1, Q6ZMN7 (Q6ZMN7 213-318): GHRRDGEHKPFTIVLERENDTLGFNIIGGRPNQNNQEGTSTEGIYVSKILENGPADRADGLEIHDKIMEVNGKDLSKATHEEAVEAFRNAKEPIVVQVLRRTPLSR

[24] = target: T9, PTPN13_1, Q12923
[25] = target: SCRIB_1, Q14160
Sequence of SCRIB_1, Q14160 (Q14160 718-814): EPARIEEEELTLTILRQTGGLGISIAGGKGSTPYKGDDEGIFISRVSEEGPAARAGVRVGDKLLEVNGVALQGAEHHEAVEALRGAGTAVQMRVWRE

[26] = target: T10, TIAM2, Q8IVF5
[27] = target: TJP1_2, Q07157
Sequence of TJP1_2, Q07157 (Q07157 181-274): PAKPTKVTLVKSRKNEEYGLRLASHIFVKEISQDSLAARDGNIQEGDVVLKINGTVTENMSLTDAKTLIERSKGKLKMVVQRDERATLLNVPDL

Row | pKd [1] | pKd [2] | pKd [3] | pKd [4] | pKd [5] | pKd [6] | pKd [7] | pKd [8] | pKd [9] | pKd [10] | pKd [11] | pKd [12] | pKd [13] | pKd [14] | pKd [15] | pKd [16] | pKd [17] | pKd [18] | pKd [19] | pKd [20] | Binder | further results
1 | below the threshold | 4.36 | 4.17 | below the threshold | below the threshold | below the threshold | below the threshold | 3.51 | below the threshold | below the threshold | 3.55 | below the threshold | below the threshold | 3.74 | below the threshold | below the threshold | below the threshold | below the threshold | below the threshold | 4.06 | NISYRRESAI [KCNJ4, P48050] | pKd [21]: below the threshold; pKd [22]: 4.05; pKd [23]: 4.25; pKd [24]: below the threshold; pKd [25]: 3.89; pKd [26]: 4.07; pKd [27]: below the threshold
2 | below the threshold | below the threshold | below the threshold | below the threshold | below the threshold | below the threshold | below the threshold | 3.56 | below the threshold | below the threshold | below the threshold | 3.68 | below the threshold | below the threshold | 3.57 | below the threshold | below the threshold | 3.65 | below the threshold | 3.66 | ARSAAASNYV [CLDN4, O14493] | pKd [21]: below the threshold; pKd [22]: below the threshold; pKd [23]: 3.66; pKd [24]: below the threshold; pKd [25]: below the threshold; pKd [26]: below the threshold; pKd [27]: below the threshold
3 | below the threshold | 3.91 | 3.66 | below the threshold | below the threshold | below the threshold | below the threshold | 3.71 | below the threshold | below the threshold | 3.61 | below the threshold | below the threshold | 3.62 | 3.83 | below the threshold | below the threshold | below the threshold | below the threshold | below the threshold | QRPYRRGSEI [KCNJ18, B7U540] | pKd [21]: below the threshold; pKd [22]: below the threshold; pKd [23]: below the threshold; pKd [24]: below the threshold; pKd [25]: below the threshold; pKd [26]: 4.11; pKd [27]: below the threshold

From paper PMC9482650, “Quantitative fragmentomics allow affinity mapping of interactomes” (Nature Communications, 2022)
